These results are taken from patent publication WO2015037992A1 (dated 2015).

For this experiment, the target named is T1, HPeV1 VP1 (recombinant capsid protein, his-tag) (human parechovirus 1 (Harris), UniProt Q66578 543-773).
T1 sequence: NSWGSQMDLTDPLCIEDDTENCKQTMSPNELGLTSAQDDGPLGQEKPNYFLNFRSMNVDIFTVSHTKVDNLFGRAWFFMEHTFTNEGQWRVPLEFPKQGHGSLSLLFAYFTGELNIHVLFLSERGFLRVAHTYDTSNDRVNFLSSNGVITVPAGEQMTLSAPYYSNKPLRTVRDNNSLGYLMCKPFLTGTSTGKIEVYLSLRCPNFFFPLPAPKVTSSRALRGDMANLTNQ

B1: AM18 (antibody, V domains shown)
VH: QVQFMQSGAEVKKPGASVKVSCKASGDTFSNFAVHWVRQAPGQRPEWMGWVNAGDSNLKYSQRFQGRLIITRDTFASTVYLDLSSLTSKDTAVYYCAGGNFGGNSATFDYWGQGTLVTVSS
VL: EIVLTQSPGTLSLSPGERATLSCRASQSVSDNYLAWYQQKPGQAPRLLIYGASHKSTGIPDRFSGSGSGTDFTLTISRLEPEDFAVYYCQQYGGSPLTFGGGTKVEIKR
As usually defined, the Kd is the constant that tells how readily two partners part at equilibrium. For orientation: koff means a measure of how fast the partners let go of each other. A word on the kon: it is a measure of how fast the partners come together. As to B1, the Kd came out at 0.0115 nM, the koff came out at 2.3e-06 s⁻¹ and the kon was found to be 208000 M⁻¹ s⁻¹.
